Data on 18 variants can be found in the supplement of paper PMC7125110.

Broadly, the kcat is the number of substrate molecules converted per active site and unit of time at saturation. What is called KM is the concentration of substrate that gives half-maximal velocity.

The chains are these.
B1: glmS ribozyme (parent)
chain: AUAAAAGCGCCAGAACUACAGAAAUGUAGUUGACGAGGAGGAGGUUUAUCGAAUUUUCGGCGGAUGCCUCCAAA

Conditions in all cases: with glucosamine-6-phosphate
Variants of B1 are the subject of data set [1]. Briefly: kcat; higher = faster cleavage; RNA array. The method, boiled down: (§1)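 Glucosamine-6-phosphate (40 μM to 10 mM) in HEPES/KCl/Mg(OAc)2 buffer was flowed over sequenced MiSeq chips, and tiles were imaged over ~14 h. Barcoded ribozyme variants there had been transcribed in situ by E. coli RNA polymerase and were tracked through a hybridised Cy3 probe at 37 °C. One- or two-exponential decay fits to per-tile medians, normalised to baseline and to non-cleaving reference variants, gave kobs. kcat and KM came from weighted Michaelis–Menten fits across concentrations.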

Variants of B1 are the subject of data set [2]. The data set is described as follows: KM; higher = weaker cofactor use; RNA array. A digest of the protocol: as §1
Data set [3] covers variants of B1. Briefly: self-cleavage kobs at 40 uM GlcN6P; higher = faster cleavage; RNA array. The method, boiled down: as §1
Variants of B1 are the subject of data set [4]. The data set is described as follows: self-cleavage kobs at 10000 uM GlcN6P; higher = faster cleavage; RNA array. The method, boiled down: as §1
In data set [5] the parent is B1. Briefly: self-cleavage kobs at 640 uM GlcN6P; higher = faster cleavage; RNA array. The method, boiled down: as §1
In data set [6] the parent is B1. Briefly: self-cleavage kobs at 2500 uM GlcN6P; higher = faster cleavage; RNA array. The method, boiled down:
as §1

In data set [7] the parent is B1. The data set is described as follows: self-cleavage kobs at 160 uM GlcN6P; higher = faster cleavage; RNA array. A digest of the protocol:
as §1

± gives the standard error. For part of these data: This sample holds only a part of the variants without activity.

With U56G G60A, the kcat in data set [1] turned out to be 2.37e-05 ± 6.7e-07 s⁻¹. Moreover, the KM in data set [2] was found to be 623 ± 130 µM. Moreover, the “self-cleavage kobs at 40 uM GlcN6P” value in data set [3] is < 1e-05 s⁻¹. In data set [4], the “self-cleavage kobs at 10000 uM GlcN6P” value was 2.25e-05 ± 1.1e-05 s⁻¹.
With U56A G66C, the catalytic constant (kcat) in data set [1] came out at 0.000237 ± 5.7e-05 s⁻¹. Moreover, the “self-cleavage kobs at 640 uM GlcN6P” value in data set [5] turned out to be 0.000107 ± 1.6e-05 s⁻¹. Further, the “self-cleavage kobs at 2500 uM GlcN6P” value in data set [6] stood at 0.000132 ± 3.9e-05 s⁻¹. For the same variant, in data set [4], the “self-cleavage kobs at 10000 uM GlcN6P” value was 0.000238 ± 4.6e-05 s⁻¹.
In the case of A14U U45A, the catalytic constant (kcat) in data set [1] was found to be 0.0137 ± 0.0043 s⁻¹. Further, the KM in data set [2] was 1480 ± 610 µM. The “self-cleavage kobs at 40 uM GlcN6P” value in data set [3] was found to be 0.000446 ± 7.7e-05 s⁻¹. Further, the “self-cleavage kobs at 160 uM GlcN6P” value in data set [7] came to 0.00102 ± 0.00029 s⁻¹. Also, the “self-cleavage kobs at 640 uM GlcN6P” value in data set [5] was found to be 0.00404 ± 0.00082 s⁻¹. The “self-cleavage kobs at 2500 uM GlcN6P” value in data set [6] worked out at 0.00683 ± 0.0026 s⁻¹. Further, the “self-cleavage kobs at 10000 uM GlcN6P” value in data set [4] worked out at 0.0148 ± 0.004 s⁻¹.
With C58U C61G, the kcat in data set [1] worked out at 3.19e-05 ± 9.4e-06 s⁻¹. In addition, the “self-cleavage kobs at 640 uM GlcN6P” value in data set [5] came out at 5.03e-05 ± 1.4e-05 s⁻¹. In data set [6], the “self-cleavage kobs at 2500 uM GlcN6P” value was found to be 2.9e-05 ± 1.3e-05 s⁻¹.
As for U46C U47A, the kcat in data set [1] stood at 0.00433 ± 0.002 s⁻¹. For the same variant, the “self-cleavage kobs at 40 uM GlcN6P” value in data set [3] amounted to 9.34e-05 ± 1.5e-05 s⁻¹. Moreover, in data set [5], the “self-cleavage kobs at 640 uM GlcN6P” value amounted to 0.000719 ± 0.00017 s⁻¹. Moreover, the “self-cleavage kobs at 2500 uM GlcN6P” value in data set [6] was determined as 0.00311 ± 0.0008 s⁻¹. Also, the “self-cleavage kobs at 10000 uM GlcN6P” value in data set [4] is 0.00365 ± 0.001 s⁻¹.
Regarding C34A U56G, the kcat in data set [1] was < 1e-05 s⁻¹. Besides, the KM in data set [2] amounted to 31 ± 12 µM. The “self-cleavage kobs at 40 uM GlcN6P” value in data set [3] is < 1e-05 s⁻¹. For the same variant, in data set [7], the “self-cleavage kobs at 160 uM GlcN6P” value was < 1e-05 s⁻¹. The “self-cleavage kobs at 640 uM GlcN6P” value in data set [5] is < 1e-05 s⁻¹. The “self-cleavage kobs at 2500 uM GlcN6P” value in data set [6] was < 1e-05 s⁻¹.
Consider C34A A36C U45A, for which the kcat in data set [1] was < 1e-05 s⁻¹. Besides, in data set [3], the “self-cleavage kobs at 40 uM GlcN6P” value was < 1e-05 s⁻¹. Besides, the “self-cleavage kobs at 160 uM GlcN6P” value in data set [7] was < 1e-05 s⁻¹.
For G13U A42G, the kcat in data set [1] was found to be 0.00137 ± 0.00022 s⁻¹. The Michaelis-Menten constant (KM) in data set [2] was found to be 1680 ± 460 µM. Moreover, the “self-cleavage kobs at 40 uM GlcN6P” value in data set [3] is 2.35e-05 ± 1.1e-05 s⁻¹. Also, the “self-cleavage kobs at 160 uM GlcN6P” value in data set [7] turned out to be 0.000152 ± 3.8e-05 s⁻¹. Moreover, the “self-cleavage kobs at 2500 uM GlcN6P” value in data set [6] was determined as 0.00082 ± 0.00017 s⁻¹. Besides, the “self-cleavage kobs at 10000 uM GlcN6P” value in data set [4] was found to be 0.00117 ± 0.00027 s⁻¹.
With U57A C68A, in data set [1], the kcat was determined as 2.64e-05 ± 5.2e-06 s⁻¹.
On the same count and under the same terms, then A53U G60A C70A, with 1.78e-05 ± 4.4e-06 s⁻¹.
As for U57A C58G, the kcat in data set [1] was 7.04e-05 ± 3.8e-06 s⁻¹. Moreover, the KM in data set [2] was 4690 ± 580 µM. Also, the “self-cleavage kobs at 2500 uM GlcN6P” value in data set [6] was determined as 2.42e-05 ± 1.1e-05 s⁻¹. In addition, the “self-cleavage kobs at 10000 uM GlcN6P” value in data set [4] was determined as 4.8e-05 ± 1.2e-05 s⁻¹.
Regarding A14G G32C C70U, in data set [1], the kcat came out at 0.000668 ± 0.00026 s⁻¹. Further, the “self-cleavage kobs at 2500 uM GlcN6P” value in data set [6] came out at 9.2e-05 ± 3.3e-05 s⁻¹. In addition, the “self-cleavage kobs at 10000 uM GlcN6P” value in data set [4] was determined as 0.000239 ± 4.4e-05 s⁻¹.
As for G59U U65G, in data set [1], the kcat was < 1e-05 s⁻¹. In addition, the “self-cleavage kobs at 640 uM GlcN6P” value in data set [5] was < 1e-05 s⁻¹.
Take G29C U65A: the kcat in data set [1] was 0.000197 ± 2.5e-05 s⁻¹. Moreover, the KM in data set [2] turned out to be 2100 ± 780 µM. In addition, the “self-cleavage kobs at 640 uM GlcN6P” value in data set [5] came to 3.62e-05 ± 1.2e-05 s⁻¹. Also, the “self-cleavage kobs at 2500 uM GlcN6P” value in data set [6] was 0.00013 ± 1.8e-05 s⁻¹. In addition, the “self-cleavage kobs at 10000 uM GlcN6P” value in data set [4] came to 0.000157 ± 1.5e-05 s⁻¹.
In the same order, the values of G41C A64G are 0.000146 ± 1.2e-05 s⁻¹, 1760 ± 510 µM, 3.48e-05 ± 8.4e-06 s⁻¹, 0.000107 ± 1.8e-05 s⁻¹ and 0.000122 ± 8.8e-06 s⁻¹.
Take G32U C58U: in data set [1], the kcat amounted to 0.000916 ± 0.0003 s⁻¹. Besides, the “self-cleavage kobs at 160 uM GlcN6P” value in data set [7] worked out at 6.06e-05 ± 1.7e-05 s⁻¹. Also, the “self-cleavage kobs at 640 uM GlcN6P” value in data set [5] worked out at 0.000118 ± 1.5e-05 s⁻¹. Besides, the “self-cleavage kobs at 2500 uM GlcN6P” value in data set [6] stood at 0.000245 ± 3e-05 s⁻¹. For the same variant, the “self-cleavage kobs at 10000 uM GlcN6P” value in data set [4] was determined as 0.000655 ± 6.4e-05 s⁻¹.
With C16G U45C, in data set [1], the kcat came to 0.0003 ± 7.1e-05 s⁻¹. Further, the “self-cleavage kobs at 640 uM GlcN6P” value in data set [5] stood at 7.2e-05 ± 2.1e-05 s⁻¹. Also, the “self-cleavage kobs at 2500 uM GlcN6P” value in data set [6] is 0.000367 ± 9.7e-05 s⁻¹. In data set [4], the “self-cleavage kobs at 10000 uM GlcN6P” value turned out to be 0.000243 ± 3.7e-05 s⁻¹.
Take G32U A33U: the kcat in data set [1] is < 1e-05 s⁻¹. In data set [3], the “self-cleavage kobs at 40 uM GlcN6P” value is < 1e-05 s⁻¹. In addition, the “self-cleavage kobs at 160 uM GlcN6P” value in data set [7] was < 1e-05 s⁻¹. Also, the “self-cleavage kobs at 2500 uM GlcN6P” value in data set [6] was < 1e-05 s⁻¹.
